B1: RHOBTB3 (parent)
chain: QLQSMPSRELASMNLDIVDLLKKA
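Further: lentivirally expressed fusions sorted by FACS into six bins by GFP to DsRed ratio, PSI derived from sequencing read proportions per bin multiplied by bin number.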

Variants of B1 are the subject of the data set. Nature of the data set: protein stability index of a GFP-peptide fusion (GPS, HEK-293T) (PSI 1-6); higher = more stable. As to conditions: c terminus: a fixed tail appended.
Consider QLQSMPSRELASMNTDIVDLLKKA [L15T], for which the protein stability index came out at 4.17. On to QLQSMPSRELASMNYDIVDLLKKA [L15Y], for which the protein stability index is 3.87. On to QLQSMPSRELASMNHDIVDLLKKA [L15H], for which the protein stability index worked out at 3.98.

Take QLQSMPSRELASMNIDIVDLLKKA [L15I]: the protein stability index amounted to 3.66. Take QLQSMPSRELASMNKDIVDLLKKA [L15K]: the protein stability index came to 4.45. For QLQSMPSRELASMNFDIVDLLKKA [L15F], the protein stability index came out at 3.44. QLQSMPSRELASMNNDIVDLLKKA [L15N]: the protein stability index worked out at 3.45. The result for QLQSMPSRELASMNPDIVDLLKKA [L15P] reads 4.48; that for QLQSMPSRELASMNMDIVDLLKKA [L15M], 3.86. On to QLQSMPSRELASMNWDIVDLLKKA [L15W], for which the protein stability index amounted to 2.88. For QLQSMPSRELASMNEDIVDLLKKA [L15E], the protein stability index worked out at 3.94. As for QLQSMPSRELASMNVDIVDLLKKA [L15V], the protein stability index is 3.35. As for QLQSMPSRELASMNQDIVDLLKKA [L15Q], the protein stability index came to 3.72.

In the case of QLQSMPSRELASMNDDIVDLLKKA [L15D], the protein stability index amounted to 3.23.

Consider QLQSMPSRELASMNSDIVDLLKKA [L15S], for which the protein stability index was 3.79. Consider QLQSMPSRELASMNADIVDLLKKA [L15A], for which the protein stability index stood at 3.67. As to QLQSMPSRELASMNGDIVDLLKKA [L15G], the protein stability index turned out to be 3.99. Turning to QLQSMPSRELANMNLDIVDLLKKA [S12N], the protein stability index came out at 3.06. Turning to QLQSMPSRELAIMNLDIVDLLKKA [S12I], the protein stability index came to 3.02. The figure for QLQSMPSRELAVMNLDIVDLLKKA [S12V] is 3.95; for QLQSMPSRELAKMNLDIVDLLKKA [S12K] it is 3.63. As to QLQSMPSRELAGMNLDIVDLLKKA [S12G], the protein stability index is 3.9. As for QLQSMPSRELACMNLDIVDLLKKA [S12C], the protein stability index was 3.33.

For the variant QLQSMPSRELAFMNLDIVDLLKKA [S12F], the protein stability index turned out to be 3.22.

Take QLQSMPSRELAWMNLDIVDLLKKA [S12W]: the protein stability index worked out at 2.5. The figure for QLQSMPSRELAMMNLDIVDLLKKA [S12M] is 3.24; for QLQSMPSRELAPMNLDIVDLLKKA [S12P] it is 4.11. The result for QLQSMPSRELADMNLDIVDLLKKA [S12D] reads 3.68.

Turning to QLQSMPSRELATMNLDIVDLLKKA [S12T], the protein stability index was found to be 3.75. The result for QLQSMPSRELAQMNLDIVDLLKKA [S12Q] reads 4.1. Regarding QLQSMPSRELAHMNLDIVDLLKKA [S12H], the protein stability index turned out to be 3.06. Turning to QLQSMPSRELAYMNLDIVDLLKKA [S12Y], the protein stability index worked out at 2.95. Consider QLQSMPSRELALMNLDIVDLLKKA [S12L], for which the protein stability index was found to be 3.54.

On to QLQSMPSRELAEMNLDIVDLLKKA [S12E], for which the protein stability index amounted to 4.26. The result for QLQSMPSRELAAMNLDIVDLLKKA [S12A] reads 3.28; that for QLQSMPSRELARMNLDIVDLLKKA [S12R], 2.13; that for QLQSMWSRELASMNLDIVDLLKKA [P6W], 1.85. With QLQSMQSRELASMNLDIVDLLKKA [P6Q], the protein stability index came to 3.

Take QLQSMVSRELASMNLDIVDLLKKA [P6V]: the protein stability index was 2.14. In the case of QLQSMNSRELASMNLDIVDLLKKA [P6N], the protein stability index came to 3.55. As to QLQSMKSRELASMNLDIVDLLKKA [P6K], the protein stability index came to 3.77. The figure for QLQSMTSRELASMNLDIVDLLKKA [P6T] is 3.46; for QLQSMLSRELASMNLDIVDLLKKA [P6L] it is 2.2; for QLQSMRSRELASMNLDIVDLLKKA [P6R] it is 3.25. As for QLQSMYSRELASMNLDIVDLLKKA [P6Y], the protein stability index came to 1.88.

As to QLQSMPARELASMNLDIVDLLKKA [S7A], the protein stability index was found to be 3.59.

For the variant QLQSMPKRELASMNLDIVDLLKKA [S7K], the protein stability index worked out at 2.97. On to QLQSMPMRELASMNLDIVDLLKKA [S7M], for which the protein stability index is 2.51. Turning to QLQSMPNRELASMNLDIVDLLKKA [S7N], the protein stability index is 2.98. Take QLQSMPWRELASMNLDIVDLLKKA [S7W]: the protein stability index was found to be 5. For the variant QLQSMPDRELASMNLDIVDLLKKA [S7D], the protein stability index was 3.9. As to QLQSMPHRELASMNLDIVDLLKKA [S7H], the protein stability index was determined as 4.55. Consider QLQSMPIRELASMNLDIVDLLKKA [S7I], for which the protein stability index is 2.42. With QLQSMPQRELASMNLDIVDLLKKA [S7Q], the protein stability index was found to be 3.77. The figure for QLQSMPYRELASMNLDIVDLLKKA [S7Y] is 3; for QLQSMPGRELASMNLDIVDLLKKA [S7G] it is 2.66; for QLQSMPRRELASMNLDIVDLLKKA [S7R] it is 4.13. Consider QLQSMPERELASMNLDIVDLLKKA [S7E], for which the protein stability index was determined as 3.48.

QLQSMPTRELASMNLDIVDLLKKA [S7T]: the protein stability index came to 4.35.

As for QLQSMPLRELASMNLDIVDLLKKA [S7L], the protein stability index was 2.56.

Turning to QLQSMPPRELASMNLDIVDLLKKA [S7P], the protein stability index stood at 4.46.

Turning to QLQSMPCRELASMNLDIVDLLKKA [S7C], the protein stability index was found to be 2.69. On to QLQSMPSRELVSMNLDIVDLLKKA [A11V], for which the protein stability index is 3.27.

Consider QLQSMPSRELMSMNLDIVDLLKKA [A11M], for which the protein stability index was determined as 3.34. As for QLQSMPSRELSSMNLDIVDLLKKA [A11S], the protein stability index was 3.54. As for QLQSMPSRELDSMNLDIVDLLKKA [A11D], the protein stability index came out at 3.75. The result for QLQSMPSRELNSMNLDIVDLLKKA [A11N] reads 3.29; that for QLQSMPSRELKSMNLDIVDLLKKA [A11K], 2.72. Regarding QLQSMPSRELPSMNLDIVDLLKKA [A11P], the protein stability index was found to be 3.27.

In the case of QLQSMPSRELCSMNLDIVDLLKKA [A11C], the protein stability index came out at 3.17.

Take QLQSMPSRELWSMNLDIVDLLKKA [A11W]: the protein stability index was 2.79. QLQSMPSRELISMNLDIVDLLKKA [A11I]: the protein stability index amounted to 2.87. Consider QLQSMPSRELTSMNLDIVDLLKKA [A11T], for which the protein stability index is 3.28. In the case of QLQSMPSRELESMNLDIVDLLKKA [A11E], the protein stability index was found to be 3.73. On to QLQSMPSRELLSMNLDIVDLLKKA [A11L], for which the protein stability index came out at 3.11. Regarding QLQSMPSRELGSMNLDIVDLLKKA [A11G], the protein stability index came out at 3.19.

QLQSMPSRELYSMNLDIVDLLKKA [A11Y]: the protein stability index is 2.86. The figure for QLQSMPSRELHSMNLDIVDLLKKA [A11H] is 3.21; for QLQSMPSRELRSMNLDIVDLLKKA [A11R] it is 2.81. For the variant QLQSMPSRELFSMNLDIVDLLKKA [A11F], the protein stability index came out at 2.76. Consider QLQSMPSRELQSMNLDIVDLLKKA [A11Q], for which the protein stability index was 3.37. Consider QLQSMPSRELASMNLLIVDLLKKA [D16L], for which the protein stability index was determined as 2.63. The result for QLQSMPSRELASMNLIIVDLLKKA [D16I] reads 2.67; that for QLQSMPSRELASMNLQIVDLLKKA [D16Q], 3.57; that for QLQSMPSRELASMNLCIVDLLKKA [D16C], 3.25.

With QLQSMPSRELASMNLFIVDLLKKA [D16F], the protein stability index turned out to be 2.09. QLQSMPSRELASMNLHIVDLLKKA [D16H]: the protein stability index stood at 2.76. QLQSMPSRELASMNLGIVDLLKKA [D16G]: the protein stability index is 3.63. Regarding QLQSMPSRELASMNLPIVDLLKKA [D16P], the protein stability index worked out at 2.75. As for QLQSMPSRELASMNLAIVDLLKKA [D16A], the protein stability index is 2.15. As for QLQSMPSRELASMNLMIVDLLKKA [D16M], the protein stability index amounted to 2.53. Take QLQSMPSRELASMNLNIVDLLKKA [D16N]: the protein stability index stood at 2.88.

Turning to QLQSMPSRELASMNLEIVDLLKKA [D16E], the protein stability index was 3.63.

For QLQSMPSRELASMNLKIVDLLKKA [D16K], the protein stability index amounted to 2.91.
